This note sets out measurements from patent publication US20050129695A1 (published 2005).

One test has as its target T1, human Aβ1-42 (human, UniProt P05067 672-713).
T1 construct: domain: Aβ1-42; same polypeptide, aggregation state differs; also called Aβ42; 1-42 peptide
The test is described as follows: BIAcore 3000, antibody amine-coupled to CM5, peptide injected; qualitative. As to the method: (§1) BIAcore 3000, CM5 sensor surface, amine coupling kit, HEPES buffered saline (HBS, 10 mM HEPES 150 mM NaCl, pH7.4 with 3 mM EDTA and 0.005% Tween-20) and 10 mM sodium acetate pH 4.5 were purchased from Biacore, Inc. (Piscataway, N.J.). Anti-Aβmonoclonal antibodies (100 ug/mL) were dialyzed against HBS diluted 1:10 with water. Then, the dialyzed mAb solution was diluted 1:10 into 10 mM sodium acetate pH 4.5. The CM5 sensor surface was equilibrated in the BIAcore 3000 with HBS. Each antibody was immobilized onto a flow cell using the immobilization wizard provided in the operating software and the protocols supplied with the amine coupling kit. The wizard was set to immobilize 2500 RU of antibody. Typically 2000-3000 RU were actually immobilized.
(§2) For each mAb response, data as a function of time were collected (FIG. 46). From the sensorgram, report points are taken 10 seconds prior to the injection of the peptide, 10 seconds prior to the completion of the association phase, and 60 seconds into the dissociation phase. […] These calculations are made possible by assuming that 1 RU=1 pg of peptide (or protein)/mm².
(§3) Due to the potentially multiple aggregation states of the 1-38 and 1-42 peptides, a quantitative analysis of the binding constants is not possible. However, a qualitative analysis is possible. FIG. 47 ranks the mAbs as a function of binding ratio and fraction remaining on the surface after 60 seconds reflecting the stability of the complex. From this analysis C705 and C707 appear to be capable of binding to “monomeric” peptide, where as C701 and C706 requires the peptide to be aggregated to some extent before they can bind.

Another test concerns the target T2, Aβ38 peptide (1-38) (UniProt P05067 672-709).
T2 construct: domain: Aβ38 (1-38 peptide); Injected over immobilized antibodies in BIAcore; also called 1-38 peptide
The test is described as above. As to the method: as §1, §2, §3

T2 sequence (P05067 672-709 limits assumed): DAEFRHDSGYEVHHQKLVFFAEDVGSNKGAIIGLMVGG
T1 sequence (P05067 672-713 limits assumed): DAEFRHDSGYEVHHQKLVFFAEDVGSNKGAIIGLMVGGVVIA

B1: anti-Aβ monoclonal antibody C706 (antibody, V domains shown)
VH: QVQLQQSGPELMKPGASVKISCKATGYTFSTSWIEWIKQRPGHGLEWIGEVLPGSGKSNHNANFKGRATFTADTASNTAYMQLSSLTSEDSAVYYCAREGSNNNALAYWGQGTLVTVSA
VL: QIVLTQSPAIMSASPGEKVTMTCSASSSVSYMHWYQQKSGTSPKRWIYDSSRLASGVPSRFSGGGSGTSYSPTISNMEAEDAATYFCQNWRSSPTFGAGTKLELKR
notes: Tested as protein G purified IgG, detected with goat anti-mouse IgG; also called C706 mAb
B1: the binding result with human Aβ1-42 and with Aβ38 peptide (1-38) was “binds” each time.

B2: anti-Aβ monoclonal antibody C707 (antibody, V domains shown)
VH: EVQLQQSGPDLVKPGASVKTSCKTSGYSFTEYIMSWVRQSHGKSLEWIGSINPNTGGSRYNQKFKGKATLTVDKSSSTAYMEFRSLTSEDSAVYYCARGDFDYWGQGTTLTVSS
VL: DIVMTQAAFSNPVTLGTSASISCRSSKNLLHSNGITYLYWYLQRPGQSPQLLISRVSNLASGVPNRFSGSESGTDFTLRISRVEAEDVGVYYCAQLLELPFTFGSGTKLEIKR
notes: Tested as protein G purified IgG, detected with goat anti-mouse IgG; also called C707 mAb
Turning to B2, the binding result in the test with human Aβ1-42 and with Aβ38 peptide (1-38) was “binds” throughout.

B3: anti-Aβ monoclonal antibody C701 (antibody, V domains shown)
VH: EGQLQQSGAELVRSGASLKLSCTASGFNIKDHYVHWVRQRPEQGLDWIGWIAPKNGYSESAPKFQGKASMTADTSSNTVYLQLSSLTSEDTAVYYCFAGFYDSSLYWGQGTTLTVSS
VL: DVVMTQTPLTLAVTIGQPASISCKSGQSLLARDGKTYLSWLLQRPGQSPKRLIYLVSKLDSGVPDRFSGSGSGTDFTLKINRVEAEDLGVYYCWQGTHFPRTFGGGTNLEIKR
notes: Tested as protein G purified IgG, detected with goat anti-mouse IgG; also called C701 mAb
For the molecule B3, the binding result in the test with human Aβ1-42 and with Aβ38 peptide (1-38) was “binds” throughout.

B4: anti-Aβ monoclonal antibody C705 (antibody, V domains shown)
VH: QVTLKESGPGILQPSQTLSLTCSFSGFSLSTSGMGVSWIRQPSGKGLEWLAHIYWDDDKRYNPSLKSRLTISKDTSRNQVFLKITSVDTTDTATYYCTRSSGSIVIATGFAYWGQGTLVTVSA
VL: DVMMTQTPLSLPVSLGDQASISCRSSQSLVHSNGNTYLEWYMQKPGQSPMLLIYKVSNRFSGVPDRFSGSGSGTDFTLKISSVEAEDLGVFYCFQGSRVPLTFGAGTKLELKR
notes: Tested as protein G purified IgG, detected with goat anti-mouse IgG; also called C705 mAb
On to B4, for which the binding result in the test with human Aβ1-42 and with Aβ38 peptide (1-38) was “binds” throughout.
